Test results from article doi:10.1101/2025.10.06.680828 (bioRxiv, 2025).

B1: human Drp1 isoform 3 (natural protein)
chain: MEALIPVINKLQDVFNTVGADIIQLPQIVVVGTQSSGKSSVLESLVGRDLLPRGTGIVTRRPLILQLVHVSQEDKRKTTGEENGVEAEEWGKFLHTKNKLYTDFDEIRQEIENETERISGNNKGVSPEPIHLKIFSPNVVNLTLVDLPGMTKVPVGDQPKDIELQIRELILRFISNPNSIILAVTAANTDMATSEALKISREVDPDGRRTLAVITKLDLMDAGTDAMDVLMGRVIPVKLGIIGVVNRSQLDINNKKSVTDSIRDEYAFLQKKYPSLANRNGTKYLARTLNRLLMHHIRDCLPELKTRINVLAAQYQSLLNSYGEPVDDKSATLLQLITKFATEYCNTIEGTAKYIETSELCGGARICYIFHETFGRTLESVDPLGGLNTIDILTAIRNATGPRPALFVPEVSFELLVKRQIKRLEEPSLRCVELVHEEMQRIIQHCSNYSTQELLRFPKLHDAIVEVVTCLLRKRLPVTNEMVHNLVAIELAYINTKHPDFADACGLMNNNIEEQRRNRLARELPSAVSRDKVASGGGGVGDGVQEPTTGNWRGMLKTSKAEELLAEEKSKPIPIMPASPQKGHAVNLLDVPVPVARKLSAREQRDCEVIERLIKSYFLIVRKNIQDSVPKAVMHFLVNHVKDTLQSELVGQLYKSSLLDDLLTESEDMAQRRKEAADMLKALQGASQIIAEIRETHLW
B2: human Drp1 isoform 4 (natural protein)
chain: MEALIPVINKLQDVFNTVGADIIQLPQIVVVGTQSSGKSSVLESLVGRDLLPRGTGIVTRRPLILQLVHVSQEDKRKTTGEENGVEAEEWGKFLHTKNKLYTDFDEIRQEIENETERISGNNKGVSPEPIHLKIFSPNVVNLTLVDLPGMTKVPVGDQPKDIELQIRELILRFISNPNSIILAVTAANTDMATSEALKISREVDPDGRRTLAVITKLDLMDAGTDAMDVLMGRVIPVKLGIIGVVNRSQLDINNKKSVTDSIRDEYAFLQKKYPSLANRNGTKYLARTLNRLLMHHIRDCLPELKTRINVLAAQYQSLLNSYGEPVDDKSATLLQLITKFATEYCNTIEGTAKYIETSELCGGARICYIFHETFGRTLESVDPLGGLNTIDILTAIRNATGPRPALFVPEVSFELLVKRQIKRLEEPSLRCVELVHEEMQRIIQHCSNYSTQELLRFPKLHDAIVEVVTCLLRKRLPVTNEMVHNLVAIELAYINTKHPDFADACGLMNNNIEEQRRNRLARELPSAVSRDKSSKVPSALAPASQEPSPAASAEADGKVASGGGGVGDGVQEPTTGNWRGMLKTSKAEELLAEEKSKPIPIMPASPQKGHAVNLLDVPVPVARKLSAREQRDCEVIERLIKSYFLIVRKNIQDSVPKAVMHFLVNHVKDTLQSELVGQLYKSSLLDDLLTESEDMAQRRKEAADMLKALQGASQIIAEIRETHLW
B3: human Drp1 isoform 5 (natural protein)
chain: MEALIPVINKLQDVFNTVGADIIQLPQIVVVGTQSSGKSSVLESLVGRDLLPRGTGIVTRRPLILQLVHVSQEDKRKTTGEENDPATWKNSRHLSKGVEAEEWGKFLHTKNKLYTDFDEIRQEIENETERISGNNKGVSPEPIHLKIFSPNVVNLTLVDLPGMTKVPVGDQPKDIELQIRELILRFISNPNSIILAVTAANTDMATSEALKISREVDPDGRRTLAVITKLDLMDAGTDAMDVLMGRVIPVKLGIIGVVNRSQLDINNKKSVTDSIRDEYAFLQKKYPSLANRNGTKYLARTLNRLLMHHIRDCLPELKTRINVLAAQYQSLLNSYGEPVDDKSATLLQLITKFATEYCNTIEGTAKYIETSELCGGARICYIFHETFGRTLESVDPLGGLNTIDILTAIRNATGPRPALFVPEVSFELLVKRQIKRLEEPSLRCVELVHEEMQRIIQHCSNYSTQELLRFPKLHDAIVEVVTCLLRKRLPVTNEMVHNLVAIELAYINTKHPDFADACGLMNNNIEEQRRNRLARELPSAVSRDKSSKVPSALAPASQEPSPAASAEADGKLIQDSRRETKNVASGGGGVGDGVQEPTTGNWRGMLKTSKAEELLAEEKSKPIPIMPASPQKGHAVNLLDVPVPVARKLSAREQRDCEVIERLIKSYFLIVRKNIQDSVPKAVMHFLVNHVKDTLQSELVGQLYKSSLLDDLLTESEDMAQRRKEAADMLKALQGASQIIAEIRETHLW
B4: human Drp1 isoform 6 (natural protein)
chain: MEALIPVINKLQDVFNTVGADIIQLPQIVVVGTQSSGKSSVLESLVGRDLLPRGTGIVTRRPLILQLVHVSQEDKRKTTGEENDPATWKNSRHLSKGVEAEEWGKFLHTKNKLYTDFDEIRQEIENETERISGNNKGVSPEPIHLKIFSPNVVNLTLVDLPGMTKVPVGDQPKDIELQIRELILRFISNPNSIILAVTAANTDMATSEALKISREVDPDGRRTLAVITKLDLMDAGTDAMDVLMGRVIPVKLGIIGVVNRSQLDINNKKSVTDSIRDEYAFLQKKYPSLANRNGTKYLARTLNRLLMHHIRDCLPELKTRINVLAAQYQSLLNSYGEPVDDKSATLLQLITKFATEYCNTIEGTAKYIETSELCGGARICYIFHETFGRTLESVDPLGGLNTIDILTAIRNATGPRPALFVPEVSFELLVKRQIKRLEEPSLRCVELVHEEMQRIIQHCSNYSTQELLRFPKLHDAIVEVVTCLLRKRLPVTNEMVHNLVAIELAYINTKHPDFADACGLMNNNIEEQRRNRLARELPSAVSRDKSSKVPSALAPASQEPSPAASAEADGKVASGGGGVGDGVQEPTTGNWRGMLKTSKAEELLAEEKSKPIPIMPASPQKGHAVNLLDVPVPVARKLSAREQRDCEVIERLIKSYFLIVRKNIQDSVPKAVMHFLVNHVKDTLQSELVGQLYKSSLLDDLLTESEDMAQRRKEAADMLKALQGASQIIAEIRETHLW
B5: human Drp1 isoform 8 (natural protein)
chain: MEALIPVINKLQDVFNTVGADIIQLPQIVVVGTQSSGKSSVLESLVGRDLLPRGTGIVTRRPLILQLVHVSQEDKRKTTGEENDPATWKNSRHLSKGVEAEEWGKFLHTKNKLYTDFDEIRQEIENETERISGNNKGVSPEPIHLKIFSPNVVNLTLVDLPGMTKVPVGDQPKDIELQIRELILRFISNPNSIILAVTAANTDMATSEALKISREVDPDGRRTLAVITKLDLMDAGTDAMDVLMGRVIPVKLGIIGVVNRSQLDINNKKSVTDSIRDEYAFLQKKYPSLANRNGTKYLARTLNRLLMHHIRDCLPELKTRINVLAAQYQSLLNSYGEPVDDKSATLLQLITKFATEYCNTIEGTAKYIETSELCGGARICYIFHETFGRTLESVDPLGGLNTIDILTAIRNATGPRPALFVPEVSFELLVKRQIKRLEEPSLRCVELVHEEMQRIIQHCSNYSTQELLRFPKLHDAIVEVVTCLLRKRLPVTNEMVHNLVAIELAYINTKHPDFADACGLMNNNIEEQRRNRLARELPSAVSRDKVASGGGGVGDGVQEPTTGNWRGMLKTSKAEELLAEEKSKPIPIMPASPQKGHAVNLLDVPVPVARKLSAREQRDCEVIERLIKSYFLIVRKNIQDSVPKAVMHFLVNHVKDTLQSELVGQLYKSSLLDDLLTESEDMAQRRKEAADMLKALQGASQIIAEIRETHLW
B6: human Drp1 isoform 2 (natural protein)
chain: MEALIPVINKLQDVFNTVGADIIQLPQIVVVGTQSSGKSSVLESLVGRDLLPRGTGIVTRRPLILQLVHVSQEDKRKTTGEENGVEAEEWGKFLHTKNKLYTDFDEIRQEIENETERISGNNKGVSPEPIHLKIFSPNVVNLTLVDLPGMTKVPVGDQPKDIELQIRELILRFISNPNSIILAVTAANTDMATSEALKISREVDPDGRRTLAVITKLDLMDAGTDAMDVLMGRVIPVKLGIIGVVNRSQLDINNKKSVTDSIRDEYAFLQKKYPSLANRNGTKYLARTLNRLLMHHIRDCLPELKTRINVLAAQYQSLLNSYGEPVDDKSATLLQLITKFATEYCNTIEGTAKYIETSELCGGARICYIFHETFGRTLESVDPLGGLNTIDILTAIRNATGPRPALFVPEVSFELLVKRQIKRLEEPSLRCVELVHEEMQRIIQHCSNYSTQELLRFPKLHDAIVEVVTCLLRKRLPVTNEMVHNLVAIELAYINTKHPDFADACGLMNNNIEEQRRNRLARELPSAVSRDKLIQDSRRETKNVASGGGGVGDGVQEPTTGNWRGMLKTSKAEELLAEEKSKPIPIMPASPQKGHAVNLLDVPVPVARKLSAREQRDCEVIERLIKSYFLIVRKNIQDSVPKAVMHFLVNHVKDTLQSELVGQLYKSSLLDDLLTESEDMAQRRKEAADMLKALQGASQIIAEIRETHLW

Target: the molecule itself
Assay: mass photometry

Question: Which “stoichiometry N” value does the source give for B1 here?
Answer: 2

Question: Which “stoichiometry N” value does the source give for B2 here?
Answer: 2

Question: Which “stoichiometry N” value does the source give for B3 here?
Answer: 2

Question: How did the “stoichiometry N” value turn out when B4 was run?
Answer: 2

Question: B5 was tested. Which “stoichiometry N” value did it give?
Answer: 2

Question: B6 was tested. Which “stoichiometry N” value did it give?
Answer: 2
